From patent JP2012115243A (dated 2012)
Values belong to the binder of their own block, whether it stands above or below them.

What was measured:
MT1−MMPヒンジ領域ペプチドコンジュゲート = target: T1, MT1−MMPヒンジ領域ペプチドコンジュゲート (mouse, UniProt P02769 25-607 (bovine entry), C-terminal Cys coupled through the linker Sulfo-EMCS to the carrier protein); test: SPR, peptide 3-BSA complex immobilised, scFv as analyte
T1 construct: peptide 3); also called ペプチド−BSA複合体; 固相化抗原

[1] = target: T2, 抗MT1−MMP抗体MMPK9I (ハイブリドーマ19Bが産生する抗体IgG); test: flow immunoassay: free hinge peptide (0.0-100 ng/mL) inhibits binding of Cy5-F(ab')2-labelled IgG MMPK9I to conjugate-coated polystyrene beads
T2 construct: Mouse IgG from hybridoma 19B; Culture supernatant in the screening; in the flow immunoassay in complex with Cy5-labelled goat anti-mouse IgG F(ab')2; also called 抗体K9I

T1 sequence (P02769 25-607 limits assumed): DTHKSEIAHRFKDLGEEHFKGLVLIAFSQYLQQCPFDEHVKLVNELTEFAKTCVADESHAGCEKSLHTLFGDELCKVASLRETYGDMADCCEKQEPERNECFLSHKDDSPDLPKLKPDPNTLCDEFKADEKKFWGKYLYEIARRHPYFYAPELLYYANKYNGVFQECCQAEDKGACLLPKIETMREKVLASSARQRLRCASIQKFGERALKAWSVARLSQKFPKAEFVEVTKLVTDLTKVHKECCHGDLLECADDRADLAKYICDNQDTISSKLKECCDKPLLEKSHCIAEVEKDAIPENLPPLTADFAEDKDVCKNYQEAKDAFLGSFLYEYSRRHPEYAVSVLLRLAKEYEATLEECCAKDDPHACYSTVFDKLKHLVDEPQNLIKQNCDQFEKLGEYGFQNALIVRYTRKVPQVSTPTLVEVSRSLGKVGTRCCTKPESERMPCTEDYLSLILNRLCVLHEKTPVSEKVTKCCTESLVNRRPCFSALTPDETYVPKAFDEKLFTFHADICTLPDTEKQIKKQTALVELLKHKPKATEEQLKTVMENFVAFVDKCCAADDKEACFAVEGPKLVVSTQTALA

- Kd (MT1−MMPヒンジ領域ペプチドコンジュゲート): ~10 nM
B1: 単鎖抗体MMP98−1 (scFv, V domains shown)
VH: EVQLQQSGPELKKPGETVKISCKASGYPVTKYGMNWVKQAPGKGLKWMGWINTYTGEPTYTDDFKGRFAFSLETSANTAYLQINNLKDEDTATYFCANSHGKYVEWFTYWGQGTTVTVSS
VL: DIELTQSPTTMAASPGEKITITCSASSSISSNYLHWYQQKPGFSPKLLIYRTSNLASGVPARFSGSGSGTSYSLTIGTMEAEDVATYYCQQGSSIPLTFGAGTKLELKR

- Kd (MT1−MMPヒンジ領域ペプチドコンジュゲート): ~10 nM
B2: 単鎖抗体MMPK9E−1 (scFv, V domains shown)
VH: QIQLVQSGPELKKPGETVKISCKASGYTFTSYALHWVKQAPGKGLKWMGWKYTNTGEPTYGDDFKGRFAFSLETSASTAYLQINNLKNEDMATYFCARGGLSSYAMDYWGQGTSVTVSS
VL: DIVMSQSPSSLAVSAGEKVTMSCKSSQSLLNSRTRKNYLAWYQQKPGQSPKLLIYWASTRESGVPDRFTGTGSGTDFTLTISSVQAEDLAVYYCKQSYNLLVTFGAGTKLELKR

- IC50 [1]: ~4.74 ng/mL
B3: MT1−MMPヒンジ領域ペプチド (peptide)
peptide: PQPRTTSRPSVPDKPKNC
notes: also called MT1−MMPペプチド; 抗原ペプチド

- Kd (MT1−MMPヒンジ領域ペプチドコンジュゲート): ~10 nM
B4: 単鎖抗体MMPK9I−1 (scFv, V domains shown)
VH: QVQLQQSGAELVRPGASVTLSCKASGYRFTDYEMHWVRQTPVHGLEWIGAIDPETGGTAYNQKFKGKATLTEDKSSSTAYMELRSLTSEDSAVYYCTTMITTALDYWGQGTSVTVSS
VL: DVLMTQTPLSLPVSLGDQASISCRSSQSIVHSDGNTYLEWYLQKPGQSPKVLIYKVSNRFSGVPDRFSGSGSGTDFTLKITRVEAEDLGVYYCFQGSHVPYTFGGGTKLEIKR
